{"source": "patent US20220112240", "key": {"[1]": {"tested_on": "T1, L-2 FLAG (branched peptide; branching symbol printed as an image)", "T1 sequence 1": "XFKY", "T1 sequence 2": "DYKDDDDKG"}, "[2]": {"tested_on": "T2, D-2 FLAG (branched peptide; branching symbol printed as an image)", "T2 sequence 1": "FFKY", "T2 sequence 2": "DYKDDDDKG"}}, "data": [{"substance": "enterokinase (ENTK), enzyme added in solution", "values": [{"measurement": "circular dichroism after ENTK cleavage of the branch", "setting": "[1]", "value": "the cleavage of the branch results in largely β-sheet (D-1) and random-coil (FLAG-tag) like secondary structures ... as well as for those of D-2 FLAG and L-2 FLAGs"}, {"measurement": "circular dichroism after ENTK cleavage of the branch", "setting": "[2]", "value": "the cleavage of the branch results in largely β-sheet (D-1) and random-coil (FLAG-tag) like secondary structures ... as well as for those of D-2 FLAG and L-2 FLAGs"}]}]}
